# Experiment: soluble on expression in E. coli; label from the status in PepcDB or PDB records
row,Sequence,soluble on expression in E. coli
1,GPGSMRLALVGKRTHSLRDNGTPRMHAGDVFICISGSGCIGSIMCTYAQAKKASTGIVMIAGGVGDVPPKDSACATTTLLRSRDGLPWHLHGGGALGPVDGQPVRVRLVFAALFGRDALGGDAAGA,soluble
2,GPGSMRSTAPLFMAQGIWAGFRYYLGHFFYPNMYREYLSVQNAHKIERALRIQTAIKANRVDYRALLALPVTDHAHPYKMEYPWEKVINTDKSKLSGYGKWYASKIMCFYEGLQYHKYGCLQDDLINAHGWWNRAARTRAPQDKIVHGDRRVMRARVLRDKYIYEPKSRWVHPIDNVAYFGPYVMMVCDEWEEKWGFFAGQEVEY,not soluble
3,GPGSMSAAACSWRHTEWTPYEVLNVPPSAPIGDIRAAFKCMALHTHPDKATVTTSARRASGSGATSCSEFPVSFHIVKEASEMLLDPYLRAAYDAARSQALTREVGAISDTYSLMDDFVRVRMDGDESDRQRVHVYQRECRCGGVYEVAVFPEAPAGSGEDEDVPLTYSARTLRCECDSCSLVVEVVA,soluble
4,GPGSMSAAGVTVRRAEREDTQRMYDLIMELAIYERAPECVVVSKAQMEEEGFGERPLWSAFVAELQETNDVKPRVIGMALYYYRYSTWRGRMLYLEDFIVTESHRGIGAGKMLFERVLQQAKEEGCHGMVWQALDWNAPAIEFYKKYDAEIDPGWVNCMLKF,soluble
5,GPGSMSQQNAVEALLARLQMGDTIPAFQSMGVDRIVSLRKMSEEALSQAVPDPEQRQALMDAIESRGHLQSRRAGPPAGQPHPPRSADADFARGGNDEGRGGYAPRGDRGGRIARGGRGGGRGAGAPNGDDAARVCRHVFTPEGCKYGDKCRYSHDENDRRRAQEVPTGSGMAQRSLERPPPNFKFSIEVEIPTERIKYLLGSQGNNMKFINETCGTYNERFDHVDEKEETFTIRILGGSEEAINKAKEMLLLSAGVKREEEKKDRFQYAVNELDANTHAARLFAACNTKNKDTTRHLSDSIMRNIVSSFHFVRPQEVRHFYMYTSSSDKDKLEMVSKIVSQLKGVQAILFCDQKRVEEMCKGSQRIARHFNGVEPQFVYRQLSKEDRMMALERFKKGVENENGVRQRLLVTNEDYAKLARKTIIPYVNLVINFSVPRAEEYYVLQSQVAGRQGTIGASFLCVSNYEEALFRELEKNIQFERFEDEEHFRTTAVELSYDTTAQPLTPEDADPPADWREHLNDKKPRQNFGKRR,soluble
6,GPGSMSTPNLDALLGVPLAAELVARAGGLLALCKLSDAALRMLGTEEFQSIASSSRARQLHAGLLLKAPLFTNAFGDEEEVDTTDRKAAQKGAAQLGRKCALVAKADLAGAFSDGSLGEAEKEKLNAAFTRLLAEGKVTAEDTQALAAPFVYVHGDAAKHRRGGVKERKKRESQQESISVVARATQRVRMGVSEEEQVQQLLQREDIRSEFAKERAQQLLKESRKRARESVHDEYDDLQNISL,not soluble
7,GPGSMTEHICASLVLTRGPEGLQRRLPVRLPLSGKPITIGRAIDNDVVLEMDLIFSSQWHCQMFAQKCEPETSERVEEREAASDPSRCEGRHVDCEGQTEIPVKEQYSLWLVDVGSSNGTFVNGIRVASSAPTPLHHGDVIVLGGMRDVEVGKSLPMEDLPLEIVTWRVAMEGKSEEGFGFVATPPVFLSMEFVISQARQRALGALQDSPDPKVSTTSPLKLPLKRMRHEQETGSNKLYDDGDVTPKRRIREVSYPSGEDRSGGELARRSGTVAAYLDPNEANAWEVTTNSSSDVASTTGLPCPSSKATASRGYCNSDALAEPTKEDARETRVAPAVARETVQ,soluble
8,GPGSMTRRNAMSDNTTSTSSVTPERYPFCIVWTDIPLVSWLFPFVGHVGICDSTGRIFDFEGSYCIGVDHMLFGNPVKYWDISAMYVPSSRFPPGGLLSGDVEERRRRETEEYDRALSGVTTRFRKTQTYNFFTNNCHSYVASVLEEMTNGPRRPWNMFWIAWGLAIHGRSLLKSPSSLPRYRRPLCDRRCTLGLTRSK,not soluble
9,GPGSMTTGQQQSIEGLRNELQQLEDSLMVREEALQRKRQQSERLNNELVDAYLSTTSQEESRASANEAYRTASRAKQVLENSETQSNESMWSNRDDYVSQLMAADEERKGVEADIGEVSSRIKELREDKVDAQKRLTVARLMSMLDDLQSLLKKKVYGPSGSEETRAQELLKTVQELSRERERTIHLLSKKEREMASLIDLKQRRIEELRKEFTRNVSMYADSNKRELLNVAQRIQGERHQLLEEMERLEEANRKITDVLMDTKYTTESAIKDRDTALSAVETMGVSTNPERECLQLRERIQKANAERRMYVLKMEEVQSSIDEDTVMYNTRMSKLRKEILFYQDETVRFEKENKDLKHLCDTLAGSLDGSH,not soluble

# — the DeepSol protein solubility set
